Measured values from patent US20180066060A1.

Biological target: human CD303 antigen (human) (UniProt Q8WTT0)
Assay: cell-based or functional assay

human CD303 antigen (human), sequence (Q8WTT0 whole entry): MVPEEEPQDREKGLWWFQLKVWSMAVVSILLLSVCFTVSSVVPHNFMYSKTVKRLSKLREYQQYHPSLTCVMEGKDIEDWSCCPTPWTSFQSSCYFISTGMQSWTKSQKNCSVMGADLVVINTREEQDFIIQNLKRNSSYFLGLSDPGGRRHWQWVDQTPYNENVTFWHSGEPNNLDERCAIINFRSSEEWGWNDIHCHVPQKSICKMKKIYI

B1: humanized anti-CD303 antibody BIIB059 (antibody, INN chains, looked up, V domains shown)
VH: DVQLVESGGGLVKPGGSLRLSCAASGFTFSTYTMSWVRQAPGKGLEWVATISPGDSFGYYYPDSVQGRFTISRDNAKNSLYLQMNSLRAEDTAVYYCTRDIYYNYGAWFAYWGQGTLVTVSS
VL: DIQLTQSPSSLSASVGDRVTITCKASQSVDYDGDSYMNWYQQKPGKAPKLLIYAASTLESGVPSRFSGSGSGTDFTLTISSLQPEDFATYYCQQANEDPRTFGQGTKVEIK
EC50 (ng/mL), ADCC activity via CD16a: 1.68 ng/mL
Emax (% lysis), ADCC activity via CD16a: 29.3 % lysis
